Data set [1] deals with Factor X (FX), P00742.
Data set [2] addresses Factor X, P00742.
Data set [3] addresses plasma purified human AT-III (antithrombin III). Description: AT-III/UFH inhibition K0.5, ratio to Catalyst Biosciences WT FIXa.
The target of data set [4] is plasma purified human antithrombin III (AT-III), as complex with unfractionated heparin. Description: ratio of K0.5 (lower limit) to Catalyst Biosciences WT FIXa, AT-III/UFH inhibition.

Bounds are passed on as bounds.

Usually kcat stands for the maximal rate divided by the concentration of active sites. For orientation: kcat/KM means the turnover number divided by the Michaelis constant. The term KM denotes the substrate concentration at which the rate is half of its maximum.

Sequence of Factor X (FX), P00742 (P00742 whole entry, looked up): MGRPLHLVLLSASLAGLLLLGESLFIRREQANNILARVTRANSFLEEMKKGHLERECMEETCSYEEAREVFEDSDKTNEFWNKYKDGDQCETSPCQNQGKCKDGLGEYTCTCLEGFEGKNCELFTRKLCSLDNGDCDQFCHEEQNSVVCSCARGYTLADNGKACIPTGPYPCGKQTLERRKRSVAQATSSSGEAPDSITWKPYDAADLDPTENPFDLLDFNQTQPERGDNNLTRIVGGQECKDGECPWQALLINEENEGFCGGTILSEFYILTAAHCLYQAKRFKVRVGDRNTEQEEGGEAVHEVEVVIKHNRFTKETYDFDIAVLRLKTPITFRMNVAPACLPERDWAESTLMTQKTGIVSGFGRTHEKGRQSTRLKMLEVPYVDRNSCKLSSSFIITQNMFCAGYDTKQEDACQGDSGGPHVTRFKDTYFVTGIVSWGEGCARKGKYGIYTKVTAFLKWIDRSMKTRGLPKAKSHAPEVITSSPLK
Sequence of Factor X, P00742 (P00742 whole entry, looked up): as above

B1: FIXa-R318Y/R338E/R403E/E410S (protein)
chain 1: YNSGKLEEFVQGNLERECMEEKCSFEEAREVFENTERTTEFWKQYVDGDQCESNPCLNGGSCKDDINSYECWCPFGFEGKNCELDVTCNIKNGRCEQFCKNSADNKVVCSCTEGYRLAENQKSCEPAVPFPCGRVSVSQTSKLTR
chain 2: VVGGEDAKPGQFPWQVVLNGKVDAFCGGSIVNEKWIVTAAHCVETGVKITVVAGEHNIEETEHTEQKRNVIRIIPHHNYNAAINKYNHDIALLELDEPLVLNSYVTPICIADKEYTNIFLKFGSGYVSGWGRVFHKGYSALVLQYLRVPLVDRATCLESTKFTIYNNMFCAGFHEGGRDSCQGDSGGPHVTEVEGTSFLTGIISWGEECAMKGKYGIYTKVSEYVNWIKSKTKLT
Take B1: in data set [1], the “% of WT kcat/KM” value is given as 458%; the catalytic constant (kcat) was found to be 5.8 s⁻¹; the kcat of FX activation by FIXa (Xase complex with FVIIIa, PC/PS vesicles, Ca2+) stood at 7.4 s⁻¹; the specificity constant (kcat/KM) was found to be 2.1e+08 M⁻¹ s⁻¹. Also, in data set [2], the “% of WT kcat/KM” value was 401%, the KM was determined as 0.0351 µM and the kcat/KM amounted to 1.8e+08 M⁻¹ s⁻¹. Also, the K0.5-mut/K0.5-wt in data set [3] is more than 517. In addition, the K0.5-mut/K0.5-wt in data set [4] turned out to be 517.

B2: FIXa-K228N/K247N/N249S/R318Y/R338E/R403E/E410N (protein)
chain 1: YNSGKLEEFVQGNLERECMEEKCSFEEAREVFENTERTTEFWKQYVDGDQCESNPCLNGGSCKDDINSYECWCPFGFEGKNCELDVTCNIKNGRCEQFCKNSADNKVVCSCTEGYRLAENQKSCEPAVPFPCGRVSVSQTSKLTR
chain 2: VVGGEDAKPGQFPWQVVLNGKVDAFCGGSIVNEKWIVTAAHCVETGVNITVVAGEHNIEETEHTEQNRSVIRIIPHHNYNAAINKYNHDIALLELDEPLVLNSYVTPICIADKEYTNIFLKFGSGYVSGWGRVFHKGYSALVLQYLRVPLVDRATCLESTKFTIYNNMFCAGFHEGGRDSCQGDSGGPHVTEVEGTSFLTGIISWGEECAMKGKYGIYTKVSEYVNWIKNKTKLT
In the case of B2, in data set [1], the KM came out at 0.0558 µM and the kcat of FX activation by FIXa (Xase complex with FVIIIa, PC/PS vesicles, Ca2+) worked out at 7.1 s⁻¹. In data set [2], the “% of WT kcat/KM” value came out at 258%, the kcat was determined as 6.1 s⁻¹ and the specificity constant (kcat/KM) is 1.2e+08 M⁻¹ s⁻¹. Moreover, the K0.5-mut/K0.5-wt in data set [3] is more than 517. Besides, the K0.5-mut/K0.5-wt in data set [4] turned out to be 517.

B3: FIXa-D104N/K106S/N260S/R318Y/R338E/R403E/E410N (protein)
chain 1: YNSGKLEEFVQGNLERECMEEKCSFEEAREVFENTERTTEFWKQYVDGDQCESNPCLNGGSCKDDINSYECWCPFGFEGKNCELDVTCNIKNGRCEQFCKNSANNSVVCSCTEGYRLAENQKSCEPAVPFPCGRVSVSQTSKLTR
chain 2: VVGGEDAKPGQFPWQVVLNGKVDAFCGGSIVNEKWIVTAAHCVETGVKITVVAGEHNIEETEHTEQKRNVIRIIPHHNYSAAINKYNHDIALLELDEPLVLNSYVTPICIADKEYTNIFLKFGSGYVSGWGRVFHKGYSALVLQYLRVPLVDRATCLESTKFTIYNNMFCAGFHEGGRDSCQGDSGGPHVTEVEGTSFLTGIISWGEECAMKGKYGIYTKVSEYVNWIKNKTKLT
For B3, in data set [1], the Michaelis-Menten constant (KM) stood at 0.0611 µM and the kcat of FX activation by FIXa (Xase complex with FVIIIa, PC/PS vesicles, Ca2+) is 5.4 s⁻¹. Moreover, in data set [2], the “% of WT kcat/KM” value came to 196%, the catalytic constant (kcat) came out at 5.4 s⁻¹ and the specificity constant (kcat/KM) was 8.8e+07 M⁻¹ s⁻¹. In addition, the K0.5-mut/K0.5-wt in data set [3] is more than 517. Further, the K0.5-mut/K0.5-wt in data set [4] was 517.

B4: FIXa-R318Y/R338E/R403E/E410N/T412V (protein)
chain 1: YNSGKLEEFVQGNLERECMEEKCSFEEAREVFENTERTTEFWKQYVDGDQCESNPCLNGGSCKDDINSYECWCPFGFEGKNCELDVTCNIKNGRCEQFCKNSADNKVVCSCTEGYRLAENQKSCEPAVPFPCGRVSVSQTSKLTR
chain 2: VVGGEDAKPGQFPWQVVLNGKVDAFCGGSIVNEKWIVTAAHCVETGVKITVVAGEHNIEETEHTEQKRNVIRIIPHHNYNAAINKYNHDIALLELDEPLVLNSYVTPICIADKEYTNIFLKFGSGYVSGWGRVFHKGYSALVLQYLRVPLVDRATCLESTKFTIYNNMFCAGFHEGGRDSCQGDSGGPHVTEVEGTSFLTGIISWGEECAMKGKYGIYTKVSEYVNWIKNKVKLT
B4: in data set [1], the Michaelis-Menten constant (KM) came out at 0.0443 µM and the kcat of FX activation by FIXa (Xase complex with FVIIIa, PC/PS vesicles, Ca2+) is 7 s⁻¹. Moreover, in data set [2], the “% of WT kcat/KM” value was determined as 424%, the kcat stood at 7.9 s⁻¹ and the kcat/KM turned out to be 1.9e+08 M⁻¹ s⁻¹. Further, the K0.5-mut/K0.5-wt in data set [3] was more than 517. The K0.5-mut/K0.5-wt in data set [4] was determined as 517.

B5: FIXa-R318Y/R338E/E410N/T412V (protein)
chain 1: YNSGKLEEFVQGNLERECMEEKCSFEEAREVFENTERTTEFWKQYVDGDQCESNPCLNGGSCKDDINSYECWCPFGFEGKNCELDVTCNIKNGRCEQFCKNSADNKVVCSCTEGYRLAENQKSCEPAVPFPCGRVSVSQTSKLTR
chain 2: VVGGEDAKPGQFPWQVVLNGKVDAFCGGSIVNEKWIVTAAHCVETGVKITVVAGEHNIEETEHTEQKRNVIRIIPHHNYNAAINKYNHDIALLELDEPLVLNSYVTPICIADKEYTNIFLKFGSGYVSGWGRVFHKGYSALVLQYLRVPLVDRATCLESTKFTIYNNMFCAGFHEGGRDSCQGDSGGPHVTEVEGTSFLTGIISWGEECAMKGKYGIYTKVSRYVNWIKNKVKLT
Take B5: in data set [1], the KM came to 0.0297 µM and the kcat of FX activation by FIXa (Xase complex with FVIIIa, PC/PS vesicles, Ca2+) is 5.2 s⁻¹. Besides, in data set [2], the “% of WT kcat/KM” value is recorded as 536%, the catalytic constant (kcat) is 6.3 s⁻¹ and the specificity constant (kcat/KM) is 2.4e+08 M⁻¹ s⁻¹. In addition, in data set [3], the K0.5-mut/K0.5-wt stood at 252. Moreover, in data set [4], the K0.5-mut/K0.5-wt is 517.

B6: FIXa-R318Y/R338E/R403E/E410N/T412A (protein)
chain 1: YNSGKLEEFVQGNLERECMEEKCSFEEAREVFENTERTTEFWKQYVDGDQCESNPCLNGGSCKDDINSYECWCPFGFEGKNCELDVTCNIKNGRCEQFCKNSADNKVVCSCTEGYRLAENQKSCEPAVPFPCGRVSVSQTSKLTR
chain 2: VVGGEDAKPGQFPWQVVLNGKVDAFCGGSIVNEKWIVTAAHCVETGVKITVVAGEHNIEETEHTEQKRNVIRIIPHHNYNAAINKYNHDIALLELDEPLVLNSYVTPICIADKEYTNIFLKFGSGYVSGWGRVFHKGYSALVLQYLRVPLVDRATCLESTKFTIYNNMFCAGFHEGGRDSCQGDSGGPHVTEVEGTSFLTGIISWGEECAMKGKYGIYTKVSEYVNWIKNKAKLT
Consider B6, for which, in data set [1], the Michaelis constant (KM) is 0.0335 µM and the kcat of FX activation by FIXa (Xase complex with FVIIIa, PC/PS vesicles, Ca2+) was determined as 7.8 s⁻¹. Moreover, in data set [2], the “% of WT kcat/KM” value is reported as 577%, the kcat came out at 8.4 s⁻¹ and the catalytic efficiency (kcat/KM) amounted to 2.6e+08 M⁻¹ s⁻¹. Besides, in data set [3], the K0.5-mut/K0.5-wt is more than 517. For the same protein, in data set [4], the K0.5-mut/K0.5-wt was determined as 517.

B7: FIXa-N260S/R318Y/R338E/R403E/E410N (protein)
chain 1: YNSGKLEEFVQGNLERECMEEKCSFEEAREVFENTERTTEFWKQYVDGDQCESNPCLNGGSCKDDINSYECWCPFGFEGKNCELDVTCNIKNGRCEQFCKNSADNKVVCSCTEGYRLAENQKSCEPAVPFPCGRVSVSQTSKLTR
chain 2: VVGGEDAKPGQFPWQVVLNGKVDAFCGGSIVNEKWIVTAAHCVETGVKITVVAGEHNIEETEHTEQKRNVIRIIPHHNYSAAINKYNHDIALLELDEPLVLNSYVTPICIADKEYTNIFLKFGSGYVSGWGRVFHKGYSALVLQYLRVPLVDRATCLESTKFTIYNNMFCAGFHEGGRDSCQGDSGGPHVTEVEGTSFLTGIISWGEECAMKGKYGIYTKVSEYVNWIKNKTKLT
As to B7, in data set [1], the Michaelis-Menten constant (KM) was found to be 0.0724 µM and the kcat of FX activation by FIXa (Xase complex with FVIIIa, PC/PS vesicles, Ca2+) was 3.8 s⁻¹. For the same protein, in data set [2], the “% of WT kcat/KM” value stood at 117%, the catalytic constant (kcat) is 3.8 s⁻¹ and the specificity constant (kcat/KM) was found to be 5.3e+07 M⁻¹ s⁻¹. Moreover, in data set [3], the K0.5-mut/K0.5-wt is more than 517. Further, the K0.5-mut/K0.5-wt in data set [4] is 517.

B8: FIXa-Y155F/R318Y/R338E/N346D/R403E/E410N (protein)
chain 1: YNSGKLEEFVQGNLERECMEEKCSFEEAREVFENTERTTEFWKQYVDGDQCESNPCLNGGSCKDDINSYECWCPFGFEGKNCELDVTCNIKNGRCEQFCKNSADNKVVCSCTEGYRLAENQKSCEPAVPFPCGRVSVSQTSKLTR
chain 2: VVGGEDAKPGQFPWQVVLNGKVDAFCGGSIVNEKWIVTAAHCVETGVKITVVAGEHNIEETEHTEQKRNVIRIIPHHNYNAAINKYNHDIALLELDEPLVLNSYVTPICIADKEYTNIFLKFGSGYVSGWGRVFHKGYSALVLQYLRVPLVDRATCLESTKFTIYDNMFCAGFHEGGRDSCQGDSGGPHVTEVEGTSFLTGIISWGEECAMKGKYGIYTKVSEYVNWIKNKTKLT
As to B8, in data set [1], the KM was 0.1 µM and the kcat of FX activation by FIXa (Xase complex with FVIIIa, PC/PS vesicles, Ca2+) came to 6.4 s⁻¹. Further, in data set [2], the “% of WT kcat/KM” value was found to be 139%, the turnover number (kcat) stood at 6.4 s⁻¹ and the specificity constant (kcat/KM) worked out at 6.2e+07 M⁻¹ s⁻¹. In data set [3], the K0.5-mut/K0.5-wt is more than 517. The K0.5-mut/K0.5-wt in data set [4] worked out at 517.
